US20260098072A1, “METHODS OF STIMULATING APPETITE AND/OR INCREASING BODY WEIGHT USING NON-NATURALLY OCCURRING MELANOCORTIN RECEPTOR ANTAGONIST ANALOGS” (Endevica Bio, Inc., priority 2022, published 2026)
Positions of bridges follow the written chain, without caps; N, C: chain ends. Non-standard residues stand in square brackets, D forms with d. No end group written: not given here. d2Nal = N[C@H](Cc1ccc2ccccc2c1)C(=O)O; Nle = CCCC[C@H](N)C(=O)O

Legend:
human MC3R = molecular target: T1, human MC3R (Homo sapiens, UniProt P41968); assay: cAMP accumulation assay (HTRF), antagonist activity at MC3R; format: cell-based; settings: dose-response fit, MC3R
T1 construct: expressed in transfected cells; host or cells: HEK293/CRE-luc/MC3R
T1 sequence (P41968 whole entry): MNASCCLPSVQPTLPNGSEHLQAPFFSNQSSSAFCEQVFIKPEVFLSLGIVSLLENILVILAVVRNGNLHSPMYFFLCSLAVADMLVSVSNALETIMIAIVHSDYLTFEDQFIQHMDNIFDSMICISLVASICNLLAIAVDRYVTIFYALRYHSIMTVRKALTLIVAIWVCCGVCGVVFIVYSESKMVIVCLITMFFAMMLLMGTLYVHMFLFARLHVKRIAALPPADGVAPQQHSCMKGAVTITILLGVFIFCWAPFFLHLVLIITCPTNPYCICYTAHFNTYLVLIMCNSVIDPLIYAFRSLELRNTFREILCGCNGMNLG
Description: (§1) The antagonist activity of exemplary non-naturally occurring melanocortin analogs (SEQ ID NOs: 3, 4, 6, 9-11, 14, 15, and 291-309) at the melanocortin 3 receptor (MC3R) and melanocortin 4 (MC4R) receptor was measured via cAMP accumulation assay, according to the following procedure.
(§2) Recombinant cell lines shown in Table 1 were stimulated with melanocortin receptor antagonists and evaluated for cyclic adenosine monophosphate (cAMP) levels as a measurement of receptor activation. cAMP levels were quantified using Homogeneous Time-Resolved Fluorescence (HTRF). The stimulation and CAMP measurement were performed sequentially. First, the compound stimulated the G-protein coupled receptor (GPCR) which then induced downstream signaling, which was measured soon after. Cell lines and stimulated receptors used are detailed in Table 1.
(§3) Twenty-seven exemplary synthetic peptides were tested for antagonist activity at the human MC3R and MC4R at concentrations ranging from 0.1 nM to 1,000 nM. After stimulation, the level of cyclic adenosine monophosphate (CAMP) in each well was quantified via Homogenous Time-Resolved Fluorescence (HTRF) as a measurement of receptor activity. Dose-response curves and estimated IC50 values were then obtained for each antagonist peptide against the MC3R and MC4R. HS024 (TFA) and was used as a positive control for the antagonist activity of MC3R (FIG. 1A) and MC4R (FIG. 1B).

human MC4R = molecular target: T2, human MC4R (Homo sapiens, UniProt P32245); assay: cAMP accumulation assay (HTRF), antagonist activity at MC4R; format: cell-based; settings: dose-response fit, MC4R
T2 construct: expressed in transfected cells; host or cells: HEK293/MC4R/CRE-GFP
T2 sequence (P32245 whole entry): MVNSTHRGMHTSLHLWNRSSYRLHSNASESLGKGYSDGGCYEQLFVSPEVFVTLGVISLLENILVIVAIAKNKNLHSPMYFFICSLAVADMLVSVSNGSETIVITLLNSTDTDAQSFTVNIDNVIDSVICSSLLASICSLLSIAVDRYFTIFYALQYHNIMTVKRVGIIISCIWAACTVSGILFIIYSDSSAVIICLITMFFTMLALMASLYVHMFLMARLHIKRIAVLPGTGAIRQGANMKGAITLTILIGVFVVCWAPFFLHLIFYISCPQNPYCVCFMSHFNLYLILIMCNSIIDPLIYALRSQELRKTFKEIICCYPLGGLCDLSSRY
Description: as §1, §2, §3

[1] = molecular target: human melanocortin 4 receptor (MC4R) (human, UniProt P32245 1-332); assay: cell-based or functional assay
Sequence of human melanocortin 4 receptor (MC4R) (P32245 whole entry): as above

[2] = molecular target: human melanocortin 3 receptor (MC3R) (human, UniProt P41968 1-323); assay: cell-based or functional assay
Sequence of human melanocortin 3 receptor (MC3R) (P41968 whole entry): as the sequence (P41968 whole entry) above

Ac-Nle-c(Asp-Pro-Phe-Phe-Arg-Trp-Lys)-Dval-Dpro-NH2 (Ac-[Nle]DPFFRWK[dV][dP]-NH2; lactam 2-8; SMILES CCCC[C@H](NC(C)=O)C(=O)N[C@H]1CC(=O)NCCCC[C@@H](C(=O)N[C@@H](C(=O)N2CCC[C@@H]2C(N)=O)C(C)C)NC(=O)[C@H](Cc2c[nH]c3ccccc23)NC(=O)[C@H](CCCNC(=N)N)NC(=O)[C@H](Cc2ccccc2)NC(=O)[C@H](Cc2ccccc2)NC(=O)[C@@H]2CCCN2C1=O) [Peptide B1]
Hill Coefficient (human MC3R): 1.05
Hill Coefficient (human MC4R): 7.57

Ac-Nle-c(Asp-Pro-Trp-Arg-Trp-Lys)-Dval-Dpro-NH2 (Ac-[Nle]DPWRWK[dV][dP]-NH2; lactam 2-7; SMILES CCCC[C@H](NC(C)=O)C(=O)N[C@H]1CC(=O)NCCCC[C@@H](C(=O)N[C@@H](C(=O)N2CCC[C@@H]2C(N)=O)C(C)C)NC(=O)[C@H](Cc2c[nH]c3ccccc23)NC(=O)[C@H](CCCNC(=N)N)NC(=O)[C@H](Cc2c[nH]c3ccccc23)NC(=O)[C@@H]2CCCN2C1=O) [Peptide C1]
Hill Coefficient (human MC3R): 0.23
Top (%) (human MC3R): 6.49%
Hill Coefficient (human MC4R): 0.08
Top (%) (human MC4R): 51.32%

IDPFFRWKVP [Peptide B8]
Hill Coefficient (human MC3R): 12.04
Top (%) (human MC3R): 4.40%
Hill Coefficient (human MC4R): 0.49
Top (%) (human MC4R): 20.03%

IDPWRWKVP [Peptide C8]
Hill Coefficient (human MC3R): −57.42
Top (%) (human MC3R): 0.80%
Hill Coefficient (human MC4R): 10.57

IPFFRWVP [Peptide B5]
Hill Coefficient (human MC3R): −0.76
Top (%) (human MC3R): 736.17%
Hill Coefficient (human MC4R): 1.22

IPWRWVP [Peptide C5]
Hill Coefficient (human MC3R): 13.82
Top (%) (human MC3R): −0.10%
Hill Coefficient (human MC4R): 1.13
Top (%) (human MC4R): 3.02%

LDPFFRWKVP [Peptide B7]
Hill Coefficient (human MC3R): −0.84
Top (%) (human MC3R): 7754.77%
Hill Coefficient (human MC4R): −1.76
Top (%) (human MC4R): 516.09%

LDPWRWKVP [Peptide C7]
Hill Coefficient (human MC3R): −0.13
Top (%) (human MC3R): 1.86%
Hill Coefficient (human MC4R): 1.62
Top (%) (human MC4R): 4.61%

LPFFRWVP [Peptide B4]
Hill Coefficient (human MC3R): 0.36
Top (%) (human MC3R): 29.62%
Hill Coefficient (human MC4R): 1.90
Top (%) (human MC4R): 16.60%

LPWRWVP [Peptide C4]
Hill Coefficient (human MC3R): −5.34
Hill Coefficient (human MC4R): −7.31
Top (%) (human MC4R): −1.97%

Leu-c(Asp-Pro-Phe-Phe-Arg-Trp-Lys)-Val-Pro (LDPFFRWKVP; lactam 2-8) [Peptide B3]
Hill Coefficient (human MC3R): 1.00
Top (%) (human MC3R): 100.00%
Hill Coefficient (human MC4R): 9.04

Leu-c(Asp-Pro-Trp-Arg-Trp-Lys)-Val-Pro (LDPWRWKVP; lactam 2-7) [Peptide C3]
Hill Coefficient (human MC3R): 49.34
Top (%) (human MC3R): 3.18%
Hill Coefficient (human MC4R): 0.44
Top (%) (human MC4R): 9.36%

VDPFFRWKVP [Peptide B9]
Hill Coefficient (human MC3R): 2.26
Top (%) (human MC3R): 1.22%
Hill Coefficient (human MC4R): −19.71
Top (%) (human MC4R): −0.55%

VDPWRWKVP [Peptide C9]
Hill Coefficient (human MC3R): 2.95
Top (%) (human MC3R): −64.92%
Hill Coefficient (human MC4R): 0.64
Top (%) (human MC4R): 219.95%

VPFFRWVP [Peptide B6]
Hill Coefficient (human MC3R): 1.62
Top (%) (human MC3R): 4.27%
Hill Coefficient (human MC4R): 0.28
Top (%) (human MC4R): 37.93%

VPWRWVP [Peptide C6]
Hill Coefficient (human MC3R): 1.00
Top (%) (human MC3R): 100.00%
Hill Coefficient (human MC4R): 2.07
Top (%) (human MC4R): 321.26%

VPWRWVP [C6]
Max Activation % [1]: 6.41%
Max Activation % [2]: -0.8%

IDPFFRWKVP [B8]
Max Activation % [1]: 13.6%
Max Activation % [2]: 4.86%

B1: C1 (peptide)
peptide: Ac-[Nle]DPWRWK[dV][dP]-NH2
modifications: lactam 2-7
SMILES: CCCC[C@H](NC(C)=O)C(=O)N[C@H]1CC(=O)NCCCC[C@@H](C(=O)N[C@@H](C(=O)N2CCC[C@@H]2C(N)=O)C(C)C)NC(=O)[C@H](Cc2c[nH]c3ccccc23)NC(=O)[C@H](CCCNC(=N)N)NC(=O)[C@H](Cc2c[nH]c3ccccc23)NC(=O)[C@@H]2CCCN2C1=O
Max Activation % [1]: 11.1%
Max Activation % [2]: 4.55%

B2: D1 (peptide)
peptide: Ac-[Nle]DPH[d2Nal]RWK[dV][dP]-NH2
modifications: lactam 2-8
SMILES: CCCC[C@H](NC(C)=O)C(=O)N[C@H]1CC(=O)NCCCC[C@@H](C(=O)N[C@@H](C(=O)N2CCC[C@@H]2C(N)=O)C(C)C)NC(=O)[C@H](Cc2c[nH]c3ccccc23)NC(=O)[C@H](CCCNC(=N)N)NC(=O)[C@@H](Cc2ccc3ccccc3c2)NC(=O)[C@H](Cc2c[nH]cn2)NC(=O)[C@@H]2CCCN2C1=O
IC50 (cAMP by HTRF, antagonist dose-response) [1]: > 10 µM
Max Activation % [1]: 49.4%
IC50 (cAMP by HTRF, antagonist dose-response) [2]: 5.81 µM
Max Activation % [2]: 74.5%

LPWRWVP [C4]
Max Activation % [1]: -6.88%
Max Activation % [2]: -0.32%

VPFFRWVP [B6]
Max Activation % [1]: 15.4%
Max Activation % [2]: 5%

VDPFFRWKVP [B9]
Max Activation % [1]: -3.71%
Max Activation % [2]: 1.08%

VDPWRWKVP [C9]
Max Activation % [1]: 5.89%
Max Activation % [2]: 1.24%

IDPWRWKVP [C8]
Max Activation % [1]: 3.02%
Max Activation % [2]: 0.47%

LDPWRWKVP [C7]
Max Activation % [1]: 5.86%
Max Activation % [2]: 0.16%

IPFFRWVP [B5]
Max Activation % [1]: -0.16%
Max Activation % [2]: 0.14%

LDPWRWKVP (lactam 2-7) [C3]
Max Activation % [1]: 8.07%
Max Activation % [2]: 3.32%

LDPFFRWKVP [B7]
Max Activation % [1]: -2.96%
Max Activation % [2]: 1.43%

B3: C2 (peptide)
peptide: Ac-LDPWRWKVP-NH2
modifications: lactam 2-7
SMILES: CC(=O)N[C@@H](CC(C)C)C(=O)N[C@H]1CC(=O)NCCCC[C@@H](C(=O)N[C@H](C(=O)N2CCC[C@H]2C(N)=O)C(C)C)NC(=O)[C@H](Cc2c[nH]c3ccccc23)NC(=O)[C@H](CCCNC(=N)N)NC(=O)[C@H](Cc2c[nH]c3ccccc23)NC(=O)[C@@H]2CCCN2C1=O
Max Activation % [1]: -3.3%
Max Activation % [2]: 0.27%

IPWRWVP [C5]
Max Activation % [1]: 2.47%
Max Activation % [2]: -0.49%

B4: A2 (peptide)
peptide: Ac-[Nle]P[d2Nal]RW[dV][dP]-NH2
SMILES: CCCC[C@H](NC(C)=O)C(=O)N1CCC[C@H]1C(=O)N[C@H](Cc1ccc2ccccc2c1)C(=O)N[C@@H](CCCNC(=N)N)C(=O)N[C@@H](Cc1c[nH]c2ccccc12)C(=O)N[C@@H](C(=O)N1CCC[C@@H]1C(N)=O)C(C)C
Max Activation % [2]: 7.92%
